Measured values published in patent US20180298357A1.

Assays:
[1] = target: DNA polymerase I (Sau) of Staphylococcus aureus (Staphylococcus aureus); assay: cell-based or functional assay
[2] = target: Sau-TBD, hybrid DNA polymerase prepared by inserting a thioredoxin binding domain (TBD) of bacteriophage T7 DNA polymerase into DNA polymerase I (Sau) of S. aureus; assay: cell-based or functional assay

TrxA (thioredoxin of E. coli) (from UniProt P0AA25 2-109)
Polymerization activities (units/mg protein), +TrxA (units/mg protein) [1]: 3100 | Average amplification length of primers (nt) [1/(1 - PI)], in the presence of TrxA [2]: 74.1 nt | Micro continuous synthetic capacities (PI), in the presence of TrxA [2]: 0.987 | Polymerization activities (units/mg protein), +TrxA (units/mg protein) [2]: 2860 | fold improvement of average amplification length of the primer on addition of TrxA [2]: > 20 fold | fold improvement of polymerization activity on addition of TrxA [2]: > 2 fold
